What was measured:
[1] = molecular target: 33-mer gluten specific peptide (wheat); assay: indirect ELISA on coated 33-Mer, duplicate 2
PWG-gliadin (wheat) = assay: SPR, Biacore T200; Glutenin amine-coupled to the chip, antibody as analyte 20-320 nM; 1:1 binding fit; Chi2 1.1 RU2, U-value 5
oat proteins (oat) [2] = assay: indirect ELISA on coated Oat, duplicate 1
[3] = molecular target: rye proteins (rye prolamins) (rye); assay: indirect ELISA on coated Rye, duplicate 2
[4] = molecular target: barley proteins (barley prolamins) (barley); assay: indirect ELISA on coated Barley, duplicate 1
[5] = molecular target: wheat proteins (wheat prolamins) (wheat); assay: indirect ELISA on coated Wheat, duplicate 2
[6] = molecular target: barley proteins (barley prolamins) (barley); assay: indirect ELISA on coated Barley, duplicate 2
oat proteins (oat) [7] = assay: indirect ELISA on coated Oat, duplicate 2
[8] = molecular target: wheat proteins (wheat prolamins) (wheat); assay: indirect ELISA on coated Wheat, duplicate 1
[9] = molecular target: 33-mer gluten specific peptide (wheat); assay: indirect ELISA on coated 33-Mer, duplicate 1
[10] = molecular target: rye proteins (rye prolamins) (rye); assay: indirect ELISA on coated Rye, duplicate 1

Sequence of 33-mer gluten specific peptide (wheat) (peptide, as listed by the source): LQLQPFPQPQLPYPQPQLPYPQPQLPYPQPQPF

Substance R5 monoclonal antibody has an ELISA absorbance at 0 ng/ml antibody (blank) [1] of 0.04, an ELISA absorbance at 0.8 ng/ml antibody [1] of 0.04 and an ELISA absorbance at 4 ng/ml antibody [1] of 0.052. For the same substance, the ELISA absorbance at 20 ng/ml antibody [1] was 0.118, the Kd (PWG-gliadin (wheat)) was 203 nM and the koff (PWG-gliadin (wheat)) was 0.0539 s⁻¹. The kon (PWG-gliadin (wheat)) was 266000 M⁻¹ s⁻¹, the ELISA absorbance at 0 ng/ml antibody (blank) (oat proteins (oat) [2]) was 0.043 and the ELISA absorbance at 0.8 ng/ml antibody (oat proteins (oat) [2]) was 0.041. The ELISA absorbance at 4 ng/ml antibody (oat proteins (oat) [2]) was 0.042, the ELISA absorbance at 20 ng/ml antibody (oat proteins (oat) [2]) was 0.043 and the ELISA absorbance at 0 ng/ml antibody (blank) [3] was 0.042. For the same substance, the ELISA absorbance at 0.8 ng/ml antibody [3] was 0.174, the ELISA absorbance at 4 ng/ml antibody [3] was 0.671 and the ELISA absorbance at 20 ng/ml antibody [3] was 1.61. It also gave an ELISA absorbance at 0 ng/ml antibody (blank) [4] of 0.041, an ELISA absorbance at 0.8 ng/ml antibody [4] of 0.165 and an ELISA absorbance at 4 ng/ml antibody [4] of 0.63. For the same substance, the ELISA absorbance at 20 ng/ml antibody [4] was 1.62, the ELISA absorbance at 0 ng/ml antibody (blank) [5] was 0.043 and the ELISA absorbance at 0.8 ng/ml antibody [5] was 0.133. The ELISA absorbance at 4 ng/ml antibody [5] was 0.534, the ELISA absorbance at 20 ng/ml antibody [5] was 1.52 and the ELISA absorbance at 0 ng/ml antibody (blank) [6] was 0.042. It also gave an ELISA absorbance at 0.8 ng/ml antibody [6] of 0.171, an ELISA absorbance at 4 ng/ml antibody [6] of 0.659 and an ELISA absorbance at 20 ng/ml antibody [6] of 1.61. It also gave an ELISA absorbance at 0 ng/ml antibody (blank) (oat proteins (oat) [7]) of 0.044, an ELISA absorbance at 0.8 ng/ml antibody (oat proteins (oat) [7]) of 0.055 and an ELISA absorbance at 4 ng/ml antibody (oat proteins (oat) [7]) of 0.043. It also gave an ELISA absorbance at 20 ng/ml antibody (oat proteins (oat) [7]) of 0.048, an ELISA absorbance at 0 ng/ml antibody (blank) [8] of 0.039 and an ELISA absorbance at 0.8 ng/ml antibody [8] of 0.133. The ELISA absorbance at 4 ng/ml antibody [8] was 0.534, the ELISA absorbance at 20 ng/ml antibody [8] was 1.5 and the ELISA absorbance at 0 ng/ml antibody (blank) [9] was 0.04. It also gave an ELISA absorbance at 0.8 ng/ml antibody [9] of 0.039, an ELISA absorbance at 4 ng/ml antibody [9] of 0.048 and an ELISA absorbance at 20 ng/ml antibody [9] of 0.067. It also gave an ELISA absorbance at 0 ng/ml antibody (blank) [10] of 0.039, an ELISA absorbance at 0.8 ng/ml antibody [10] of 0.165 and an ELISA absorbance at 4 ng/ml antibody [10] of 0.651. For the same substance, the ELISA absorbance at 20 ng/ml antibody [10] was 1.56.

From US20220135656A1
